Data reported in US12599645B2, “Antibodies which bind to lysophosphatidic acid receptor 1 (LPAR1)” (DJS ANTIBODIES LTD, priority 2021, dated 2026).
Changes are numbered by the printed parent chain. Numbers in names are those of the source. One block for each molecule: values may come before it.

How the values were obtained:
[1] = target: T1, LPAR1 (Homo sapiens, UniProt Q92633); test: Function of humanised and affinity matured variants, method not stated; design: expressed in transfected cells; conditions: stated in words
T1 sequence (Q92633 whole entry): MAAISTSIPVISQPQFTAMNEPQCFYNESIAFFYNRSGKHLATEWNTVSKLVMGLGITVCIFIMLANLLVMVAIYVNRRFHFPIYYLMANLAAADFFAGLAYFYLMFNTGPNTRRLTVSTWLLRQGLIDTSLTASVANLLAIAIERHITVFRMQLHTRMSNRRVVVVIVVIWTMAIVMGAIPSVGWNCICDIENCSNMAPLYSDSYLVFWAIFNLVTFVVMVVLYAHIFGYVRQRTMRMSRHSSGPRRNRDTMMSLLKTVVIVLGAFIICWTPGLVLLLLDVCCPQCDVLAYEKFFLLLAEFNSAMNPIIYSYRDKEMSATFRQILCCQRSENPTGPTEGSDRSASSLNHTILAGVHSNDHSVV

[2] = test system: renal fibrosis after UUO surgery; test: Unilateral ureteral obstruction (UUO) efficacy model of renal fibrosis; format: in vivo, Hartley guinea pigs; conditions: Study 1; BMS-986020 30 mg/kg oral twice daily; antibody 20 mg/kg i.p.; Day 10
Procedure: Unilateral ureteral obstruction (UUO) is a well-characterized disease model for renal fibrosis. The UUO model encompasses key pathophysiological features of chronic kidney disease; tubular necrosis and inflammatory cell infiltration within a relatively short period.
Two unilateral ureteral obstruction (UUO) model efficacy studies were carried out in six-week old female Hartley guinea pigs. On Day 0, UUO surgery was performed. BMS-986020 was administered orally at a dose level of 30 mg/kg in a volume of 5 mL/kg twice daily at from Day −1 to 9. Isotype control and anti-LPAR1 antibody was intraperitoneally administered at a dose level of 6 mg/kg (low) or 20 mg/kg (high) in a volume of 10 mL/kg at Day −1, Day 0, Day 3 and Day 6. The viability, clinical signs, behaviour and individual body weight was monitored daily.
The animals were sacrificed at Day 10. The ligated left kidney and right kidney weight were measured at sacrifice.
Hydroxyproline is an amino acid, making up around 14% of collagen and acts as an important indicator of the severity of fibrosis. To quantify kidney hydroxyproline content, frozen posterior right section of left kidney samples were processed by an alkaline-acid hydrolysis method. AC buffer (2.2M acetic acid/0.48M citric acid) was added to the samples, followed by centrifugation to collect the supernatant. A standard curve of hydroxyproline was constructed with serial dilutions of trans-4-hydroxy-L-proline (Sigma-Aldrich, USA) starting at 16 μg/mL. The prepared samples and standards were mixed with chloramine T solution (Nacalai Tesque Inc., Japan) and incubated for 25 minutes at room temperature. The samples were then mixed with Ehrlich's solution and heated at 65° C. for 20 minutes to develop the colour. After samples were cooled on ice and centrifuged to remove precipitates, the optical density of each supernatant was measured at 560 nm. The concentrations of hydroxyproline were calculated from the hydroxyproline standard curve. Protein concentrations of kidney samples were determined using a BCA protein assay kit (Thermo Fisher Scientific, USA) and used to normalize the calculated hydroxyproline values. Kidney hydroxyproline contents were expressed as μg per mg protein.
The left kidney was fixed in Bouin's solution and embedded in paraffin. For PAS staining, sections were cut from paraffin blocks and stained with Schiff's reagent (FUJIFILM Wako pure chemical corporation, Japan) according to the manufacturer's instructions. To visualize collagen deposition, kidney sections were stained using picro-Sirius red solution (FUJIFILM Wako pure chemical corporation). For quantification of interstitial and medulla fibrosis area, bright field images in the corticomedullary region were captured using a digital camera (DFC295) at 200-fold magnification, and the positive areas in 5 fields/section were measured using ImageJ software (National Institute of Health, USA).

[3] = test system: Irrelevant GPCR; test: Transient-transfection CIFAT, irrelevant GPCR control (fixed and live cells); format: binding; conditions: cells expressing irrelevant GPCR
Procedure: (§1) Anti-LPAR1 antibodies of the invention were tested alongside commercially available anti-LPAR1 antibodies in the transient-transfection CIFAT assay for live cells (method 1.11) and in the transient-transfection CIFAT assay for fixed cells (method 1.11).
The results are shown in FIGS. 11 and 12, wherein the scale bar represents 100 μm.

[4] = target: T1, LPAR1; test: LPAR1 binding affinity during discovery and affinity maturation, method not stated; design: expressed in transfected cells; conditions: stated in words
[5] = target: T1, LPAR1; test: Transient-transfection CIFAT, live cells; format: binding; design: HA; expressed in transfected cells; host or cells: CHO-K1 (transient, PEI); conditions: 5 μg/mL or 20 μg/mL
Procedure: CHO-K1 cells are seeded in multi well plates at 20,000 cells per 200 μL full growth medium and incubated for 24 hours at 37° C. In a sterile tube, 0.0309 uL/well PEI is diluted into 10 uL/well transfection medium (DMEM supplemented with 2 mM L-glutamine and Penicillin-Streptomycin). The diluted PEI is added to 100 ng/well DNA, before mixing immediately and incubating the mixture for 10 minutes at room temperature. 200 μL/well full growth medium is added to the PEI-DNA mixture, then medium in wells is taken off and 200 ul full growth medium/PEI/DNA mixture is added in the wells of the adherent cell plate. The plate is incubated for 24 hours at 37° C. The medium is discarded and replaced with 200 μL full growth medium. The plate is incubated for 24 hours at 37° C. Medium is removed from the wells and the cells incubated with primary antibody at varying concentrations for 75 minutes at 37° C. After washing and cell fixation with 4% PFA, the binding of the antibodies is detected using a goat anti-human detection antibody, incubated for 1 hour at room temperature. Fluorescence at 488 nm is measured.
CHO-K1 cells were seeded in clear 96-well plates at 20,000 cells per 200 μL full growth medium and incubated for 24 hours at 37° C. The following day, in a sterile tube, 0.0309 uL/well PEI (Generon, MW 160,000) was diluted into 10 uL/well transfection medium (DMEM supplemented with 2 mM L-glutamine and Penicillin-Streptomycin). The diluted PEI was added to 100 ng/well DNA encoding the target protein (human LPAR1 (SEQ ID NO: 62) unless otherwise stated), before vortexing immediately and incubating the mixture for 10 minutes at room temperature. 200 μL/well full growth medium was added to the PEI-DNA mixture, then medium in wells was taken off and 200 ul full growth medium/PEI/DNA mixture was added in the wells of the adherent cell plate. The plate was incubated for 24 hours at 37° C. The next day, the medium was discarded and replaced with 200 μL full growth medium. The plate was incubated for 24 hours at 37° C. The following day, medium was removed from the wells and the cells incubated with primary antibody at varying concentrations for 75 minutes at 37° C. After washing and cell fixation with 4% PFA, the binding of the antibodies was detected using a goat anti-human Alexa Fluor 488 detection antibody (Invitrogen), incubated for 1 hour at room temperature. Fluorescence at 488 nm was measured using a BMG LABTECH ClarioStar plate reader and microscopy images were taken at 10× magnification.
as §1

[6] = target: T1, LPAR1; test: Transient-transfection CIFAT, fixed/permeabilised cells; format: binding; design: HA; expressed in transfected cells; host or cells: CHO-K1 (transient, PEI); conditions: 5 μg/mL
[7] = target: T2, CHO-LPAR1 cells (Homo sapiens, UniProt Q92633); test: Competition CIFAT; format: binding; conditions: data not shown
T2 construct: expressed in transfected cells
T2 sequence (Q92633 whole entry): as above
Procedure: CHO-LPAR1 (GenScript) cells were seeded in black 96-well plates at 50,000 cells/200 μL full growth medium at and incubated for 24 hours at 37° C. The following day, the medium was removed from the wells and the cells incubated with 100 μg/mL primary antibody for 20 minutes at 37° C. After pre-incubation with the antibody, 10 μg/mL biotinylated competing antibody was added before incubation for 20 minutes at 37° C. After washing and cell fixation with 4% PFA, the binding of the antibodies was detected using an Alexa Fluor 488 streptavidin detection antibody (Molecular Probes), incubated for 45 minutes at 4° C. Fluorescence at 488 nm was measured using a BMG LABTECH ClarioStar plate reader and microscopy images were taken at 10× magnification.

B1: Antibody 7: Humanised variant of Antibody 1; VH SEQ ID NO: 33, VL SEQ ID NO: 34 (antibody, V domains shown)
VH: QVQLVQSGSELKKPGASVKVSCKASGYTFTSSGISWVRQAPGQGLEWMGEILPRSGYTNYNEGFTGRFVFSADKSVSTAYLQISSLKAEDTAVYYCARDFGSSRYAMDYWGQGTTVTVSS
VL: SIQMTQSPSSLSASVGDRVTITCQASQSVRYNVAWYQQKPGKAPKLLIYYASNRYTGVPSRFSGSGSGTDFTFTISSLQPEDIATYFCQQHYNSPLTFGGGTKLEIK
function [1]: best in terms of expression, stability and function

B4: 63D8: Further hybridoma antibody specific to LPAR1; VH SEQ ID NO: 113, VL SEQ ID NO: 114 (antibody, V domains shown)
VH: EVKLLESGGGLVQPGGSLKLSCTASGFDFSRYWMSWVRQAPGKGLEWIGEINPSRSAINYSPSLKDKFIISRDNAKNTLYLQMSKVRSEDTALYYCARQGQRLRYGMDYWGQGTSVTVSS
VL: DIVMTQSPNFMSTSVGDRVSVTCRASQDVRTAVAWYQQKPGRSPKLLIYWTSTRHTGVPDRFTGSGSGTDYTLTISSVQAADLALYYCQQHYGTPLTFGAGTNLELK
competition for the same epitope [7]: compete for the same epitope | Irrelevant GPCR cell staining [3]: Irrelevant GPCR-No significant cell staining | LPAR1 live cell staining [5]: LPAR1-Significant fixed and live cell staining | LPAR1 fixed cell staining [6]: LPAR1-Significant fixed and live cell staining

B5: Antibody 1: Hybridoma-derived antibody against LPAR1; VH SEQ ID NO: 23, VL SEQ ID NO: 24 (antibody, V domains shown)
VH: QVQLQQSGAELARPGASVKLSCKASGYTFTSSGISWVKQRTGQGLEWIGEILPRSGYTNYNEKFKGKASLTADKSSSTAYMELRSLTSEDSAVYFCARDFGSSRYAMDYWSQGTSVTVSS
VL: SIVMTQTPKLLPVSAGDRVTMTCKASQSVRYNVAWYQQKPGQSPKLLIYYASNRYTGVPDRFTGSGSGTDFTFTVRSVQVEDLAVYFCQQHYNSPLTFGSGTKLELR
competition for the same epitope [7]: compete for the same epitope

B6: Antibody 4: Hybridoma related to Antibody 1 with LCDR3 mutation Q90H; VH SEQ ID NO: 29, VL SEQ ID NO: 30 (antibody, V domains shown)
VH: B5 VH with L52Y, S77R, F100Y, G101D, S102N, M107L, S111G
VL: B5 VL with L10F, R30G, P40T, V75I, R76S, Q90H, N93S, S100A, R107K
Irrelevant GPCR cell staining [3]: Irrelevant GPCR-No significant cell staining | LPAR1 live cell staining [5]: LPAR1-Significant fixed and live cell staining | LPAR1 fixed cell staining [6]: LPAR1-Significant fixed and live cell staining

Further lines, with some results ahead:

binding affinity for LPAR1 [4]: minimal effect on affinity
B2: Antibody 13: LCDR2 mutation T56D; VH SEQ ID NO: 37, VL SEQ ID NO: 38 (antibody, V domains shown)
VH: B1 VH with E62Q, F100K, S102P, A106T
VL: B1 VL with T56D, Q90H, N93S
kidney hydroxyproline [2]: No observable difference | Irrelevant GPCR cell staining [3]: Irrelevant GPCR-No significant cell staining | LPAR1 live cell staining [5]: LPAR1-Significant fixed and live cell staining | LPAR1 fixed cell staining [6]: LPAR1-Significant fixed and live cell staining

function [1]: significantly enhanced the function
B3: Antibody 9: Antibody 8 with HCDR2 mutation E61Q; VH SEQ ID NO: 35, VL SEQ ID NO: 39 (antibody, V domains shown)
VH: B1 VH with E62Q
VL: B1 VL with Q90H, N93S
